This is an account of results in the supplement of paper PMC5998384.

Data set [1] has as its system HeLa Kyoto. As to the kind of experiment: solubility in G1/S (NP-40 vs SDS abundance) (log2 ratio); higher = more soluble. Conditions: cell cycle stage: G1/S.
The subject of data set [2] is HeLa Kyoto. Briefly: melting temperature (median over replicates), in situ; higher = more thermally stable.
Data set [3] relates to HeLa Kyoto. Briefly: solubility change mitosis vs G1/S (difference of NP-40 vs SDS log2 ratios) (log2 ratio difference); higher = more soluble in mitosis.
Data set [4] has as its system HeLa Kyoto. Briefly: thermal stability score vs G1/S (z-score of summed log2 fold changes over temperatures); higher = more thermally stable than in G1/S.
Setting [5] is: cell cycle stage: early G1 (4.5 h after nocodazole release).
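Wherever melting temperature (median over replicates), in situ is given: HeLa Kyoto cells synchronized by double thymidine or nocodazole block, proteins quantified by TMT10plex mass spectrometry, three independent biological replicates.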
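Wherever solubility change mitosis vs G1/S (difference of NP-40 vs SDS log2 ratios) is given: synchronized HeLa Kyoto cells (double thymidine block for G1/S, nocodazole release for mitosis), protein amounts in NP-40 versus SDS lysates quantified by mass spectrometry, three biological replicates.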
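Wherever solubility in G1/S (NP-40 vs SDS abundance) is given: HeLa Kyoto cells arrested at G1/S by double thymidine block, proteins quantified by TMT10plex mass spectrometry in mild NP-40 versus SDS extracts, three biological replicates.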
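Wherever thermal stability score vs G1/S (z-score of summed log2 fold changes over temperatures) is given: synchronized HeLa Kyoto cells, proteins quantified by TMT10plex mass spectrometry, three biological replicates, mitosis taken 0.5 h after nocodazole release, G1/S directly after double thymidine block.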

Take “MEEASEGGGNDRVRNLQSEVEGVKNIMTQNVERILARGENLEHLRNKTEDLEATSEHFKTTSQKVARKFWWKNVKMIVLICVIVFIIILFIVLFATGAFS [VAMP8]”: the “solubility in G1/S (log2)” value in the data set with HeLa Kyoto [1] was -0.136. Also, the melting temperature was determined as 57.8 °C in the data set with HeLa Kyoto [2] (cell cycle stage: G1/S) and 55.5 °C in the data set with HeLa Kyoto [2] (cell cycle stage: mitosis). In the data set on HeLa Kyoto [3], the “solubility change mitosis (log2)” value was 0.136. In addition, the thermal stability score was -3.17 in the data set on HeLa Kyoto [4] (setting [5]) and -6.62 in the data set with HeLa Kyoto [4] (cell cycle stage: mitosis).

Consider “MEEECRVLSIQSHVIRGYVGNRAATFPLQVLGFEIDAVNSVQFSNHTGYAHWKGQVLNSDELQELYEGLRLNNMNKYDYVLTGYTRDKSFLAMVVDIVQELKQQNPRLVYVCDPVLGDKWDGEGSMYVPEDLLPVYKEKVVPLADIITPNQFEAELLSGRKIHSQEEALRVMDMLHSMGPDTVVITSSDLPSPQGSNYLIVLGSQRRRNPAGSVVMERIRMDIRKVDAVFVGTGDLFAAMLLAWTHKHPNNLKVACEKTVSTLHHVLQRTIQCAKAQAGEGVRPSPMQLELRMVQSKRDIEDPEIVVQATVL [PDXK]”, for which the “solubility in G1/S (log2)” value in the data set on HeLa Kyoto [1] stood at 0.315. Moreover, the figures for the melting temperature in the data set with HeLa Kyoto [2] (cell cycle stage: G1/S) and in the data set with HeLa Kyoto [2] (cell cycle stage: mitosis) were 55.5 °C and 56.3 °C, respectively. Also, the “solubility change mitosis (log2)” value with HeLa Kyoto [3] is -0.0576. In addition, the thermal stability score with HeLa Kyoto [4] (setting [5]) amounted to 0.134; with HeLa Kyoto [4] (cell cycle stage: mitosis) it was 0.0482.

As to “MEEIYAKFVSQKISKTRWRPLPPGSLQTAETFATGSWDNEENYISLWSIGDFGNLDSDGGFEGDHQLLCDIRHHGDVMDLQFFDQERIVAASSTGCVTVFLHHPNNQTLSVNQQWTTAHYHTGPGSPSYSSAPCTGVVCNNPEIVTVGEDGRINLFRADHKEAVRTIDNADSSTLHAVTFLRTPEILTVNSIGQLKIWDFRQQGNEPSQILSLTGDRVPLHCVDRHPNQQHVVATGGQDGMLSIWDVRQGTMPVSLLKAHEAEMWEVHFHPSNPEHLFTCSEDGSLWHWDASTDVPEKSSLFHQGGRSSTFLSHSISNQANVHQSVISSWLSTDPAKDRIEITSLLPSRSLSVNTLDVLGPCLVCGTDAEAIYVTRHLFS [NUP43]”, the “solubility in G1/S (log2)” value in the data set on HeLa Kyoto [1] is -0.175. Also, the melting temperature with HeLa Kyoto [2] (cell cycle stage: G1/S) and in the data set on HeLa Kyoto [2] (cell cycle stage: mitosis) was 53.1 °C in each case. For the same sequence, in the data set with HeLa Kyoto [3], the “solubility change mitosis (log2)” value came to 0.0611. Moreover, the thermal stability score in the data set on HeLa Kyoto [4] (setting [5]) is -1.7; in the data set on HeLa Kyoto [4] (cell cycle stage: mitosis), -3.31.

As for “MEEKPGQPQPQHHHSHHHPHHHPQQQQQQPHHHHHYYFYNHSHNHHHHHHHQQPHQYLQHGAEGSPKAQPKPLKHEQKHTLQQHQETPKKKTGYGELNGNAGEREISLKNLSSDEATNPISRVLNGNQQVVDTSLKQTVKANTFGKAGIKTKNFIQKNSMDKKNGKSYENKSGENQSVDKSDTIPIPNGVVTNNSGYITNGYMGKGADNDGSGSESGYTTPKKRKARRNSAKGCENLNIVQDKIMQQETSVPTLKQGLETFKPDYSEQKGNRVDGSKPIWKYETGPGGTSRGKPAVGDMLRKSSDSKPGVSSKKFDDRPKGKHASAVASKEDSWTLFKPPPVFPVDNSSAKIVPKISYASKVKENLNKTIQNSSVSPTSSSSSSSSTGETQTQSSSRLSQVPMSALKSVTSANFSNGPVLAGTDGNVYPPGGQPLLTTAANTLTPISSGTDSVLQDMSLTSAAVEQIKTSLFIYPSNMQTMLLSTAQVDLPSQTDQQNLGDIFQNQWGLSFINEPSAGPETVTGKSSEHKVMEVTFQGEYPATLVSQGAEIIPSGTEHPVFPKAYELEKRTSPQVLGSILKSGTTSESGALSLEPSHIGDLQKADTSSQGALVFLSKDYEIESQNPLASPTNTLLGSAKEQRYQRGLERNDSWGSFDLRAAIVYHTKEMESIWNLQKQDPKRIITYNEAMDSPDQ [NUFIP2]”, in the data set on HeLa Kyoto [1], the “solubility in G1/S (log2)” value was -0.731. For the same sequence, the figures for the melting temperature with HeLa Kyoto [2] (cell cycle stage: G1/S) and in the data set on HeLa Kyoto [2] (cell cycle stage: mitosis) were 53.8 °C and 52.4 °C, respectively. The “solubility change mitosis (log2)” value in the data set with HeLa Kyoto [3] was found to be 0.593. The thermal stability score is -0.0647 in the data set with HeLa Kyoto [4] (setting [5]) and -0.912 with HeLa Kyoto [4] (cell cycle stage: mitosis).

On to “MEELIVELRLFLELLDHEYLTSTVREKKAVITNILLRIQSSKGFDVKDHAQKQETANSLPAPPQMPLPEIPQPWLPPDSGPPPLPTSSLPEGYYEEAVPLSPGKAPEYITSNYDSDAMSSSYESYDEEEEDGKGKKTRHQWPSEEASMDLVKDAKICAFLLRKKRFGQWTKLLCVIKDTKLLCYKSSKDQQPQMELPLQGCNITYIPKDSKKKKHELKITQQGTDPLVLAVQSKEQAEQWLKVIKEAYSGCSGPVDSECPPPPSSPVHKAELEKKLSSERPSSDGEGVVENGITTCNGKEQVKRKKSSKSEAKGTVSKVTGKKITKIISLGKKKPSTDEQTSSAEEDVPTCGYLNVLSNSRWRERWCRVKDNKLIFHKDRTDLKTHIVSIPLRGCEVIPGLDSKHPLTFRLLRNGQEVAVLEASSSEDMGRWIGILLAETGSSTDPEALHYDYIDVEMSASVIQTAKQTFCFMNRRVISANPYLGGTSNGYAHPSGTALHYDDVPCINGSLKGKKPPVASNGVTGKGKTLSSQPKKADPAAVVKRTGSNAAQYKYGKNRVEADAKRLQTKEEELLKRKEALRNRLAQLRKERKDLRAAIEVNAGRKPQAILEEKLKQLEEECRQKEAERVSLELELTEVKESLKKALAGGVTLGLAIEPKSGTSSPQSPVFRHRTLENSPISSCDTSDTEGPVPVNSAAVLKKSQAAPGSSPCRGHVLRKAKEWELKNGT [AFAP1]”, for which the “solubility in G1/S (log2)” value with HeLa Kyoto [1] is -0.611. Also, the values for the melting temperature in the data set with HeLa Kyoto [2] (cell cycle stage: G1/S) and with HeLa Kyoto [2] (cell cycle stage: mitosis) were 50.5 °C and 49.7 °C, respectively. The “solubility change mitosis (log2)” value in the data set on HeLa Kyoto [3] is 0.451. The thermal stability score in the data set with HeLa Kyoto [4] (setting [5]) is -1.47; with HeLa Kyoto [4] (cell cycle stage: mitosis) it was -2.94.

Regarding “MEELLRRELGCSSVRATGHSGGGCISQGRSYDTDQGRVFVKVNPKAEARRMFEGEMASLTAILKTNTVKVPKPIKVLDAPGGGSVLVMEHMDMRHLSSHAAKLGAQLADLHLDNKKLGEMRLKEAGTVGRGGGQEERPFVARFGFDVVTCCGYLPQVNDWQEDWVVFYARQRIQPQMDMVEKESGDREALQLWSALQLKIPDLFRDLEIIPALLHGDLWGGNVAEDSSGPVIFDPASFYGHSEYELAIAGMFGGFSSSFYSAYHGKIPKAPGFEKRLQLYQLFHYLNHWNHFGSGYRGSSLNIMRNLVK [FN3KRP]”, the “solubility in G1/S (log2)” value in the data set on HeLa Kyoto [1] is 0.12. The melting temperature was 61.1 °C in the data set with HeLa Kyoto [2] (cell cycle stage: G1/S) and 58.3 °C in the data set on HeLa Kyoto [2] (cell cycle stage: mitosis). In addition, the “solubility change mitosis (log2)” value with HeLa Kyoto [3] was 0.00242. The thermal stability score was -1.05 with HeLa Kyoto [4] (setting [5]) and -2.45 in the data set with HeLa Kyoto [4] (cell cycle stage: mitosis).
